Results: the supplement of paper PMC10567573

B1: INTS4 (parent)
chain: AKQIMEETYKMEFMYSGVENKQVV

Variants of: B1
Assay: protein stability index of a GFP-peptide fusion (GPS, HEK-293T) (PSI 1-6); higher = more stable
Settings: c terminus: a fixed tail appended
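Note: lentivirally expressed fusions sorted by FACS into six bins by GFP to DsRed ratio, PSI derived from sequencing read proportions per bin multiplied by bin number.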

For AKQIMEETYKMEFMYSGVENNQVV [K21N], which protein stability index is on record?
The protein stability index was 2.25.

Which protein stability index does the source give for AHQIMEETYKMEFMYSGVENKQVV [K2H] here?
The protein stability index was 3.23.

For AKQIMEETYKMEFMYSGIENKQVV [V18I], which protein stability index is on record?
Its protein stability index is 1.69.

With AKQNMEETYKMEFMYSGVENKQVV [I4N] as the variant, how does the protein stability index read?
The protein stability index was 2.58.

With AKQIMEETYKIEFMYSGVENKQVV [M11I] as the variant, how does the protein stability index read?
The protein stability index was 3.35.

Which protein stability index does the source give for AKQIMEETYKWEFMYSGVENKQVV [M11W] here?
The protein stability index was 2.22.

For AKQIMEETYKMEFLYSGVENKQVV [M14L], which protein stability index is on record?
The protein stability index was 2.17.

For AKQIMEETYKMEFMQSGVENKQVV [Y15Q], which protein stability index is on record?
Its protein stability index is 2.61.

For AKQIMEETYKMEFMYSGVENKQGV [V23G], which protein stability index is on record?
The protein stability index was 1.32.

For AKQIMEETYKTEFMYSGVENKQVV [M11T], which protein stability index is on record?
Its protein stability index is 2.9.

Which protein stability index does the source give for AKQIMEETYKMEFMYSGVENKQEV [V23E] here?
Its protein stability index is 1.97.

Which protein stability index does the source give for AKQIMEETHKMEFMYSGVENKQVV [Y9H] here?
The protein stability index was 3.61.

For AKQIREETYKMEFMYSGVENKQVV [M5R], which protein stability index is on record?
The protein stability index was 2.87.

With PKQIMEETYKMEFMYSGVENKQVV [A1P] as the variant, how does the protein stability index read?
The protein stability index was 3.02.

Which protein stability index does the source give for EKQIMEETYKMEFMYSGVENKQVV [A1E] here?
Its protein stability index is 3.37.

For AKQIMEEFYKMEFMYSGVENKQVV [T8F], which protein stability index is on record?
Its protein stability index is 1.64.

With AKQIMEETYKMEFMYSNVENKQVV [G17N] as the variant, how does the protein stability index read?
Its protein stability index is 1.48.

Which protein stability index does the source give for AKQIMEETYKMCFMYSGVENKQVV [E12C] here?
The protein stability index was 1.6.

Which protein stability index does the source give for AKQIMEETYKMEFMYSGVENKQSV [V23S] here?
The protein stability index was 1.76.

Which protein stability index does the source give for AKQIMEETYKREFMYSGVENKQVV [M11R] here?
The protein stability index was 3.42.

For ACQIMEETYKMEFMYSGVENKQVV [K2C], which protein stability index is on record?
The protein stability index was 2.23.

With AKQIMEETYKMEFMYSGGENKQVV [V18G] as the variant, how does the protein stability index read?
The protein stability index was 2.12.

Which protein stability index does the source give for AKQIMEETYKMEFMYSGVELKQVV [N20L] here?
Its protein stability index is 1.29.

For AKQIMEETYKMEFMESGVENKQVV [Y15E], which protein stability index is on record?
Its protein stability index is 2.9.

For AKQIMEETYKMEFCYSGVENKQVV [M14C], which protein stability index is on record?
The protein stability index was 1.98.

With AKQIMEETYKMEFMYSGVANKQVV [E19A] as the variant, how does the protein stability index read?
The protein stability index was 2.52.

With AVQIMEETYKMEFMYSGVENKQVV [K2V] as the variant, how does the protein stability index read?
The protein stability index was 2.04.

With AKQIMEETYKGEFMYSGVENKQVV [M11G] as the variant, how does the protein stability index read?
The protein stability index was 3.28.

With NKQIMEETYKMEFMYSGVENKQVV [A1N] as the variant, how does the protein stability index read?
The protein stability index was 2.1.

For AKQIMRETYKMEFMYSGVENKQVV [E6R], which protein stability index is on record?
The protein stability index was 2.48.

For AKQIMEETLKMEFMYSGVENKQVV [Y9L], which protein stability index is on record?
The protein stability index was 2.67.

Which protein stability index does the source give for AKQIMEETYKMEFSYSGVENKQVV [M14S] here?
The protein stability index was 1.66.

For AKQIMEETYKMEFMYSGNENKQVV [V18N], which protein stability index is on record?
Its protein stability index is 2.02.

Which protein stability index does the source give for AKQIMEETYKMEEMYSGVENKQVV [F13E] here?
Its protein stability index is 4.3.

For AKQIMDETYKMEFMYSGVENKQVV [E6D], which protein stability index is on record?
The protein stability index was 3.17.

For AKQIMEETYKMEFMKSGVENKQVV [Y15K], which protein stability index is on record?
The protein stability index was 2.62.

With AKQIMEETYKMAFMYSGVENKQVV [E12A] as the variant, how does the protein stability index read?
Its protein stability index is 2.97.

Which protein stability index does the source give for AKQIMEETYKMEFMYSTVENKQVV [G17T] here?
Its protein stability index is 1.06.

With AKQIMEETYKMSFMYSGVENKQVV [E12S] as the variant, how does the protein stability index read?
The protein stability index was 1.61.

Which protein stability index does the source give for AKQIMEETYKMPFMYSGVENKQVV [E12P] here?
The protein stability index was 3.16.

With AKQIMEETYKMEFMYSHVENKQVV [G17H] as the variant, how does the protein stability index read?
The protein stability index was 2.5.

For AKQHMEETYKMEFMYSGVENKQVV [I4H], which protein stability index is on record?
The protein stability index was 2.04.

With AYQIMEETYKMEFMYSGVENKQVV [K2Y] as the variant, how does the protein stability index read?
The protein stability index was 1.87.

With AKQIMEETYKSEFMYSGVENKQVV [M11S] as the variant, how does the protein stability index read?
The protein stability index was 2.37.

For AWQIMEETYKMEFMYSGVENKQVV [K2W], which protein stability index is on record?
Its protein stability index is 3.22.

For AKQIAEETYKMEFMYSGVENKQVV [M5A], which protein stability index is on record?
Its protein stability index is 3.14.

For AAQIMEETYKMEFMYSGVENKQVV [K2A], which protein stability index is on record?
Its protein stability index is 1.89.

With AKQIMEETYKMEFMYSGVENKQMV [V23M] as the variant, how does the protein stability index read?
The protein stability index was 3.75.

With AKQIMYETYKMEFMYSGVENKQVV [E6Y] as the variant, how does the protein stability index read?
The protein stability index was 1.61.

With AKQIMEETYKMEFMYSGKENKQVV [V18K] as the variant, how does the protein stability index read?
Its protein stability index is 2.72.

Which protein stability index does the source give for AKQIMEMTYKMEFMYSGVENKQVV [E7M] here?
Its protein stability index is 1.5.

Which protein stability index does the source give for RKQIMEETYKMEFMYSGVENKQVV [A1R] here?
The protein stability index was 2.69.

With AKQIMESTYKMEFMYSGVENKQVV [E7S] as the variant, how does the protein stability index read?
Its protein stability index is 1.67.

With AKQIMEETYSMEFMYSGVENKQVV [K10S] as the variant, how does the protein stability index read?
Its protein stability index is 1.81.

For AKQIMEETYKMEFMLSGVENKQVV [Y15L], which protein stability index is on record?
The protein stability index was 3.19.

Which protein stability index does the source give for AKQILEETYKMEFMYSGVENKQVV [M5L] here?
Its protein stability index is 4.9.

For AKQIMEETYKMEFMYSGVENKQVD [V24D], which protein stability index is on record?
The protein stability index was 2.56.

With AKQIMEETYGMEFMYSGVENKQVV [K10G] as the variant, how does the protein stability index read?
Its protein stability index is 2.48.

With AKQIMEETYCMEFMYSGVENKQVV [K10C] as the variant, how does the protein stability index read?
Its protein stability index is 1.6.

With AKQIMEETDKMEFMYSGVENKQVV [Y9D] as the variant, how does the protein stability index read?
The protein stability index was 3.83.

Which protein stability index does the source give for AKQIMEETYKMEFMYSGVENKQVW [V24W] here?
Its protein stability index is 2.33.

With AKQIMEETYKMEFMYSGVETKQVV [N20T] as the variant, how does the protein stability index read?
The protein stability index was 1.36.

For AKQIMEETYKMEFMYSQVENKQVV [G17Q], which protein stability index is on record?
The protein stability index was 2.37.

Which protein stability index does the source give for AKQIMSETYKMEFMYSGVENKQVV [E6S] here?
Its protein stability index is 2.47.

With AKQIMEETYKMMFMYSGVENKQVV [E12M] as the variant, how does the protein stability index read?
Its protein stability index is 2.43.

For AKQIMEETYEMEFMYSGVENKQVV [K10E], which protein stability index is on record?
The protein stability index was 3.15.

With AKQIMEETYKMEFMYSGVQNKQVV [E19Q] as the variant, how does the protein stability index read?
Its protein stability index is 1.84.

Which protein stability index does the source give for AKQIMEETYKMECMYSGVENKQVV [F13C] here?
Its protein stability index is 2.96.

Which protein stability index does the source give for AKQIGEETYKMEFMYSGVENKQVV [M5G] here?
The protein stability index was 3.53.

With AKQIMEETYKMEFMYSGVENKQVA [V24A] as the variant, how does the protein stability index read?
Its protein stability index is 1.75.

Which protein stability index does the source give for AKQIMEETYKMEFMYSGVENKQAV [V23A] here?
The protein stability index was 1.8.

Which protein stability index does the source give for AKQIMEETYKMEFMYSGVENKKVV [Q22K] here?
Its protein stability index is 1.47.

Which protein stability index does the source give for AKTIMEETYKMEFMYSGVENKQVV [Q3T] here?
The protein stability index was 1.85.

With AKQIMEETWKMEFMYSGVENKQVV [Y9W] as the variant, how does the protein stability index read?
Its protein stability index is 2.18.

Which protein stability index does the source give for AKQIMEETYKMEVMYSGVENKQVV [F13V] here?
The protein stability index was 1.67.

Which protein stability index does the source give for IKQIMEETYKMEFMYSGVENKQVV [A1I] here?
Its protein stability index is 1.42.

Which protein stability index does the source give for AKQIMEETYKMEFMWSGVENKQVV [Y15W] here?
Its protein stability index is 1.67.

For AKQIMEETYWMEFMYSGVENKQVV [K10W], which protein stability index is on record?
The protein stability index was 1.96.

With AKQIMEETYKMDFMYSGVENKQVV [E12D] as the variant, how does the protein stability index read?
Its protein stability index is 2.18.

Which protein stability index does the source give for ASQIMEETYKMEFMYSGVENKQVV [K2S] here?
Its protein stability index is 2.44.

Which protein stability index does the source give for AKQIMEETYKMEFMYSYVENKQVV [G17Y] here?
The protein stability index was 1.84.

With AKQIMEETYKMEFMYSGVEFKQVV [N20F] as the variant, how does the protein stability index read?
Its protein stability index is 2.86.

Which protein stability index does the source give for AKQIMECTYKMEFMYSGVENKQVV [E7C] here?
The protein stability index was 1.71.

With AKQMMEETYKMEFMYSGVENKQVV [I4M] as the variant, how does the protein stability index read?
The protein stability index was 1.9.

For AKQIMEETYKMEFMSSGVENKQVV [Y15S], which protein stability index is on record?
Its protein stability index is 2.15.

With AKQIMEETYKMEFMYSGVENCQVV [K21C] as the variant, how does the protein stability index read?
Its protein stability index is 1.92.

With GKQIMEETYKMEFMYSGVENKQVV [A1G] as the variant, how does the protein stability index read?
Its protein stability index is 2.39.

With AKQIMEETYKMEPMYSGVENKQVV [F13P] as the variant, how does the protein stability index read?
Its protein stability index is 3.66.

For AKQIMEETFKMEFMYSGVENKQVV [Y9F], which protein stability index is on record?
The protein stability index was 2.26.

With AKQIMEPTYKMEFMYSGVENKQVV [E7P] as the variant, how does the protein stability index read?
Its protein stability index is 2.93.

Which protein stability index does the source give for AKQIMEETYKMEFMYSGVENKQVE [V24E] here?
The protein stability index was 1.78.

Which protein stability index does the source give for AKQIMEETYKMEFMYSGVENKQVY [V24Y] here?
Its protein stability index is 2.01.

For AKQIMEETYDMEFMYSGVENKQVV [K10D], which protein stability index is on record?
Its protein stability index is 3.55.

For AKQIMEETYKMEFMYFGVENKQVV [S16F], which protein stability index is on record?
The protein stability index was 3.1.
